Assay results as given in patent US10800847.
Values belong to the substance of their own block, whether it stands above or below them.

How the values were obtained:
[1] = target: HLA-B*1503 (B72) (human); assay: iBead MFI against regular-bead MFI, IVIg diluted 1:8
[2] = target: HLA-B*1512 (B76) (human); assay: as above
[3] = target: HLA-B*1402 (B65) (human); assay: as above
[4] = target: HLA-B*0702 (B7) (human); assay: as above
[5] = target: HLA-B*1510 (B71) (human); assay: as above
[6] = target: HLA-B*1511 (B75) (human); assay: as above
[7] = target: HLA-B*1801 (B18) (human); assay: as above
[8] = target: HLA-B*1501 (B62) (human); assay: as above
[9] = target: HLA-B*1401 (B64) (human); assay: as above
[10] = target: HLA-B*0801 (B8) (human); assay: as above
[11] = target: Serum albumin on negative control beads (HSA/BSA) (human or bovine); assay: as above
[12] = target: HLA-B*1513 (B77) (human); assay: as above
[13] = target: HLA-B*8201 (B82) (human); assay: Luminex, iBeads (#6), 1:8
[14] = target: HLA-Cw*0801 (Cw8) (human); assay: Luminex, iBeads (#6), 1:8
[15] = target: HLA-Cw*1601 (Cw16) (human); assay: Luminex, iBeads (#6), 1:8
[16] = target: HLA-Cw*1502 (Cw15) (human); assay: Luminex, iBeads (#6), 1:8
[17] = target: HLA-Cw*0702 (Cw7) (human); assay: Luminex, iBeads (#6), 1:8
[18] = target: HLA-Cw*1203 (Cw12) (human); assay: Luminex, iBeads (#6), 1:8
[19] = target: HLA-Cw*1402 (Cw14) (human); assay: Luminex, iBeads (#6), 1:8
[20] = target: HLA-Cw*0602 (Cw6) (human); assay: Luminex, iBeads (#6), 1:8
[21] = target: HLA-Cw*0303 (Cw9) (human); assay: Luminex, iBeads (#6), 1:8
[22] = target: HLA-Cw*1802 (Cw18) (human); assay: Luminex, iBeads (#6), 1:8
[23] = target: HLA-Cw*0304 (Cw10) (human); assay: Luminex, iBeads (#6), 1:8
[24] = target: HLA-Cw*0501 (Cw5) (human); assay: Luminex, iBeads (#6), 1:8
[25] = target: HLA-Cw*0302 (Cw10) (human); assay: Luminex, iBeads (#6), 1:8
[26] = target: HLA-Cw*1701 (Cw17) (human); assay: Luminex, iBeads (#6), 1:8
[27] = target: Albumin (negative control beads) (human or bovine); assay: Luminex, iBeads (#6), 1:8
[28] = target: HLA-A*3303 (A33) single antigen on beads (human); assay: Luminex single-antigen regular beads (#7), IVIg 1:8
[29] = target: HLA-A*3401 (A34) single antigen on beads (human); assay: as above
[30] = target: HLA-A*6801 (A68) single antigen on beads (human); assay: as above
[31] = target: HLA-A*3101 (A31) single antigen on beads (human); assay: as above
[32] = target: HLA-A*3601 (A36) single antigen on beads (human); assay: as above
[33] = target: HLA-A*3301 (A33) single antigen on beads (human); assay: as above
[34] = target: HLA-A*6601 (A66) single antigen on beads (human); assay: as above
[35] = target: HLA-A*3002 (A30) single antigen on beads (human); assay: as above
[36] = target: HLA-A*3402 (A34) single antigen on beads (human); assay: as above
[37] = target: HLA-A*2902 (A29) single antigen on beads (human); assay: as above
[38] = target: HLA-A*6602 (A66) single antigen on beads (human); assay: as above
[39] = target: HLA-A*3201 (A32) single antigen on beads (human); assay: as above
[40] = target: HLA-A*3001 (A30) single antigen on beads (human); assay: as above
[41] = target: HLA-B*1301 (B13) (human); assay: iBead MFI against regular-bead MFI, IVIg diluted 1:8
[42] = target: HLA-B*1502 (B75) (human); assay: as above
[43] = target: HLA-B*1302 (B13) (human); assay: as above
[44] = target: HLA-A*7401 (A74) single antigen on Luminex beads (human); assay: Luminex single antigen bead assay, regular beads (#7), IVIg 1:8
[45] = target: HLA-A*6901 (A69) single antigen on Luminex beads (human); assay: as above
[46] = target: HLA-A*8001 (A80) single antigen on Luminex beads (human); assay: as above

Difference % (iBead vs regular bead) [1]: -100% | Difference % (iBead vs regular bead) [2]: 125% | Difference % (iBead vs regular bead) [3]: -100% | Difference % (iBead vs regular bead) [4]: -10% | Difference % (iBead vs regular bead) [5]: -43% | Difference % (iBead vs regular bead) [6]: -16% | Difference % (iBead vs regular bead) [7]: 0% | Difference % (iBead vs regular bead) [8]: 270% | Difference % (iBead vs regular bead) [9]: -85% | Difference % (iBead vs regular bead) [10]: -63% | Difference % (iBead vs regular bead) [11]: 33% | Difference % (iBead vs regular bead) [12]: -27% | MFI [13]: 4260 MFI | MFI [14]: 1940 MFI | MFI [15]: 2950 MFI | MFI [16]: 7670 MFI | MFI [17]: 3480 MFI | MFI [18]: 2660 MFI | MFI [19]: 1820 MFI | MFI [20]: 8180 MFI | MFI [21]: 2610 MFI | MFI [22]: 7810 MFI | MFI [23]: 2750 MFI | MFI [24]: 6350 MFI | MFI [25]: 2380 MFI | MFI [26]: 9610 MFI | MFI [27]: 5030 MFI | MFI [28]: 322 MFI | MFI [29]: 3040 MFI | MFI [30]: 192 MFI | MFI [31]: 121 MFI | MFI [32]: 564 MFI | MFI [33]: 1120 MFI | MFI [34]: 1410 MFI | MFI [35]: 1050 MFI | MFI [36]: 684 MFI | MFI [37]: 991 MFI | MFI [38]: 2360 MFI | MFI [39]: 856 MFI | MFI [40]: 924 MFI
Substance: IVIg GamaSTAN S/D (Talecris Biotherapeutics, USA) (antibody)

Difference % (iBead vs regular bead) [1]: -79% | Difference % (iBead vs regular bead) [2]: 244% | Difference % (iBead vs regular bead) [41]: -31% | Difference % (iBead vs regular bead) [4]: 39% | Difference % (iBead vs regular bead) [5]: 1% | Difference % (iBead vs regular bead) [6]: -17% | Difference % (iBead vs regular bead) [7]: 112% | Difference % (iBead vs regular bead) [9]: -33% | Difference % (iBead vs regular bead) [10]: -31% | Difference % (iBead vs regular bead) [42]: 32% | Difference % (iBead vs regular bead) [43]: -45% | Difference % (iBead vs regular bead) [12]: -45% | MFI [13]: 2730 MFI | MFI [15]: 4070 MFI | MFI [16]: 3590 MFI | MFI [18]: 4810 MFI | MFI [19]: 3970 MFI | MFI [20]: 4230 MFI | MFI [21]: 4290 MFI | MFI [22]: 3580 MFI | MFI [23]: 4140 MFI | MFI [24]: 4010 MFI | MFI [25]: 4870 MFI | MFI [26]: 6150 MFI | MFI [27]: 7150 MFI | MFI [28]: 476 MFI | MFI [29]: 3540 MFI | MFI [30]: 0 MFI | MFI [31]: 166 MFI | MFI [32]: 916 MFI | MFI [33]: 1690 MFI | MFI [34]: 648 MFI | MFI [35]: 896 MFI | MFI [36]: 0 MFI | MFI [37]: 1750 MFI | MFI [39]: 875 MFI | MFI [44]: 666 MFI | MFI [45]: 2810 MFI | MFI [46]: 3190 MFI
Substance: IVIg Gamunex-C Lot NKLG1 (antibody)

Difference % (iBead vs regular bead) [1]: -100% | Difference % (iBead vs regular bead) [2]: 51% | Difference % (iBead vs regular bead) [3]: -100% | Difference % (iBead vs regular bead) [41]: -71% | Difference % (iBead vs regular bead) [4]: -100% | Difference % (iBead vs regular bead) [5]: -79% | Difference % (iBead vs regular bead) [6]: -51% | Difference % (iBead vs regular bead) [7]: -100% | Difference % (iBead vs regular bead) [8]: 253% | Difference % (iBead vs regular bead) [9]: -82% | Difference % (iBead vs regular bead) [10]: -100% | Difference % (iBead vs regular bead) [42]: -94% | Difference % (iBead vs regular bead) [11]: -24% | Difference % (iBead vs regular bead) [43]: -100% | MFI [13]: -193 MFI | MFI [14]: 467 MFI | MFI [15]: 1560 MFI | MFI [16]: 1200 MFI | MFI [17]: 2400 MFI | MFI [18]: 1950 MFI | MFI [19]: 1070 MFI | MFI [20]: 2110 MFI | MFI [21]: 1660 MFI | MFI [22]: 1480 MFI | MFI [23]: 1820 MFI | MFI [24]: 2020 MFI | MFI [25]: 1770 MFI | MFI [26]: 3250 MFI | MFI [27]: 7800 MFI | MFI [28]: 179 MFI | MFI [29]: 2150 MFI | MFI [30]: 0 MFI | MFI [31]: 0 MFI | MFI [32]: 704 MFI | MFI [33]: 925 MFI | MFI [34]: 875 MFI | MFI [35]: 562 MFI | MFI [36]: 0 MFI | MFI [37]: 820 MFI | MFI [38]: 838 MFI | MFI [39]: 424 MFI | MFI [40]: 1230 MFI | MFI [44]: 224 MFI | MFI [45]: 2780 MFI | MFI [46]: 1680 MFI
Substance: IVIg Gamunex-C Lot NKLK1 (antibody)

Difference % (iBead vs regular bead) [1]: -100% | Difference % (iBead vs regular bead) [2]: 23% | Difference % (iBead vs regular bead) [3]: -100% | Difference % (iBead vs regular bead) [41]: -99% | Difference % (iBead vs regular bead) [4]: -100% | Difference % (iBead vs regular bead) [5]: -100% | Difference % (iBead vs regular bead) [6]: -70% | Difference % (iBead vs regular bead) [7]: -100% | Difference % (iBead vs regular bead) [8]: -100% | Difference % (iBead vs regular bead) [9]: -96% | Difference % (iBead vs regular bead) [10]: -95% | Difference % (iBead vs regular bead) [42]: -100% | Difference % (iBead vs regular bead) [11]: -29% | Difference % (iBead vs regular bead) [43]: -100% | Difference % (iBead vs regular bead) [12]: -89% | MFI [13]: 510 MFI | MFI [14]: 650 MFI | MFI [15]: 1110 MFI | MFI [16]: 255 MFI | MFI [17]: 1620 MFI | MFI [18]: 1620 MFI | MFI [19]: 976 MFI | MFI [20]: 586 MFI | MFI [21]: 1220 MFI | MFI [22]: 873 MFI | MFI [23]: 1440 MFI | MFI [24]: 1510 MFI | MFI [25]: 1170 MFI | MFI [26]: 2710 MFI | MFI [28]: 542 MFI | MFI [29]: 2880 MFI | MFI [30]: 0 MFI | MFI [31]: 366 MFI | MFI [32]: 778 MFI | MFI [33]: 1490 MFI | MFI [34]: 1700 MFI | MFI [35]: 533 MFI | MFI [36]: 0 MFI | MFI [37]: 1580 MFI | MFI [38]: 3650 MFI | MFI [39]: 738 MFI | MFI [40]: 928 MFI | MFI [44]: 201 MFI | MFI [45]: 1720 MFI | MFI [46]: 2290 MFI
Substance: IVIg Octagam (Octapharma, Lachen, Switzerland) (antibody)
